Assay: soluble on expression in E. coli; label from the status in PepcDB or PDB records
For “GPGSMEYVGALYKDYGELLSTAQNSFLNVQSDVEGVEDVKNICARLHISIHRWEHSEELYAVRNQLHLQTQVLKAHSDHSSRVLQECVQRDELIKMHTEKSALLATKLRKQSSEVDKLQKECDKLDRKIAKRSEVAQKDLDAMAVKSTATVLSLTSQFFKVMHKNGAFIADRFSPDRAGVGAHDFDTASDDAVTGTLRRLHSVRSEMSSVAPSAVYGQNYNTFHPSEADTRVSDGARNSGIPLRYETSVPPAMSA”, the “soluble on expression in E. coli” value was “not soluble”.
In the case of “MGTTLEVLRTGPLALVEDLGRPGLAHMGVTRSGAADRRSHTLANRLVANPGESATIEVTFGGFSARVCGGDVAIAVTGADTDPAVNGIPFGTNSIHHVHDGQVISLGAPHSGLRSYLAVRGGIDVTPVLGSRSYDVMSAIGPSPLRPGDVLPVGEHTDEFPELDQAPVAAIAEDVVELQVVPGPRDDWFVDPDILVRTNWLVTNRSDRVGMRLVGMPLEYRNPDRQLPSEGATRGAIQVPPNGFPVILGPDHPVTGGYPVIGVVTEEDIDKLGQVRPGQTVRLHWAYPRRPFETLESGKETAAAKFERQHMDSSTSAA”, the “soluble on expression in E. coli” value is reported as “soluble”.
In the case of “MPQDVDFHIPLPGRQSPDHARAEAEQLAWPRSLGLIRSDAAAERHLRGGYADLASRFYPHATGADLDLGVDLMSWFFLFDDLFDGPRGENPEDTKQLTDQVAAALDGPLPDTAPPIAHGFADIWRRTCEGMTPAWCARSARHWRNYFDGYVDEAESRFWNAPCDSAAQYLAMRRHTIGVQPTVDLAERAGRFEVPHRVFDSAVMSAMLQIAVDVNLLLNDIASLEKEEARGEQNNMVMILRREHGWSKSRSVSHMQNEVRARLEQYLLLESCLPKVGEIYQLDTAEREALERYRTDAVRTVIRGSYDWHRSSGRYDAEFALAAGAQGYLEELGSSAH”, the “soluble on expression in E. coli” value is reported as “soluble”.
With “MELFKEISQEESNKDSKENDNINEEIDIEQLKDKVKDLELQLEYEIKQHNVEIAEREETIKILETRIQELEHYKNDITEKDEAIINMSEKLLILSNKYDILVKESKLQEEELKHFKNKKKYRNDKTNEYILGLRNQNDEIKKEHELLNEKYAQLVKEYAILQNSCKVLNEQLENNQKNMELLIKEKSNNLDEKTAIKILNIGSKELIHKRVHNKNVDELSNLKLELEYKDMILNKLMRKQVSEGKTIKVEYTNNENKFENEKKLGEMYQKYLDSVCDNDNLKKEINKLHNKINDMKVEEEEHLKTISILRDYINKMYKEDVNINQFDDLINNILKDNTSLNEELSKQKRKNMADIYYFTKELQIVKKDKFKIIEKFDSKKVTNIPHLYEPLNLTLSKENNKREISDDDDDNKGPKGDLNFLKKNSDINCSESNIKKPLKTNDLVHIYMQDYMNNVQNKA” the “soluble on expression in E. coli” value was “not soluble”.
In the case of “MGNNQPGGMYKRDRPYDSEKSGSHSRSRGGIPSSSPSNEDECPVQMKIAKGDDKSKFPVVFKWNINNATPRQVYICGSWDGWNTKIPLVKSTSDFSTIVDLEPGKHEYKFMVDSKWVVDDNQQKTGNNLGGENNVVMIDEADFEVFDALDKDLASSNAGEALRNSHPTKESHDTPNDRELEKLHQFGQETPTRVDFNKAAAPPVLPPHLLQVILNKDTPVQCDPNVLPEPDHVMLNHLYALSIKDGVMVLSATHRYRKKFVTTLLYKPI”, the “soluble on expression in E. coli” value is reported as “soluble”.
With “MRDLKIVNGDLSFIDYGILLVEGDLELAQSVFMILSIRLEEFKLDTSVGLESDNMFGKNYNEDYLKQDITEAILDQEPRINSIENIEIVRNNRQLNITVEMLSTLGDEVEVVIRA” the “soluble on expression in E. coli” value was “not soluble”.
In the case of “MKKSLGARTLAYPTPLFLVGTYDRDSRPNIMAAAWAGICCSQPPSIAVSLRKATYTYRSITERGAFTISIPSRAYVRHADYAGIYSGENEDKFASLGLTPVPGEHVDAPYVGEFPMAIELKLIHQIEIGLHTQFIGEIMDVKVDESCLRDDGLPDINKVDPVIFAPVSREYYAVGEFLAKAFSAGKGLRS”, the “soluble on expression in E. coli” value is reported as “soluble”.
In the case of “MIYMSEIIEVIYEDGVLKPLKPLKIKGKKRLKIKIVNDDVEEFLKSMIIKKCKDIDYKKLKEAYYESFLEHHHHHH”, the “soluble on expression in E. coli” value is reported as “not soluble”.
For “AASSLDELVALCKRRGFIFQSSEIYGGLQGVYDYGPLGVELKNNLKQAWWRRNVYERDDMEGLDASVLTHRLVLHYSGHEATFADPMVDNAKARYWTPPRYFNMMFQDLRGPRGGRGLLAYLRPETAQGIFVNFKNVLDATSRKLGFGIAQIGKAFRNEITPRNFIFRVREFEQMEIEYFVRPGEDEYWHRYWVEERLKWWQEMGLSRENLVPYQQPPESSAHYAKATVDILYRFPHGSLELEGIAQRTDFDLGSHTKDQEALGITARVLRNEHSTQRLAYRDPETGKWFVPYVIEPSAGVDRGVLALLAEAFTREELPNGEERIVLKLKPQLAPIKVAVIPLVKNRPEITEYAKRLKARLLALGLGRVLYEDTGNIGKAYRRHDEVGTPFAVTVDYDTIGQSKDGTTRLKDTVTVRDRDTMEQIRLHVDELEGFLRERLRW”, the “soluble on expression in E. coli” value was “soluble”.
In the case of “DKSNKLQNLVAEQLVGCGFNEILNNSLTRAAYYDGLESYPSKNLVMLLNPLSADLNCMRQTLLFGGLESIAHNANRKNADLKFFEFGNCYHFDAEKKNPEKVLAPYSEDYHLGLWVTGKMVSNSWAHADENTSVYELKAYVENIFKRLGLDLHSLVVGNLSDDIYSTALTVNTKGGKRLATFGVVTKKMLKAFDVDNEVYYADLNWKELM”, the “soluble on expression in E. coli” value is reported as “soluble”.
In the case of “MGSDKIHHHHHHMPNQAWSYQMLHLDLAWLNQLYSEFQEQGLDLHIPQHKPLIIKDEFLYDAFTEMNETLFDAQKLIFEKEQSLLHCLIHLLLPHFILEEIQKPQYLYKDFLNLIDVISSSEGFISLEELAQRVGLSRYAIIRLFKANVGLTPHAFQINLKINQAREQLKKGVPLAELAVNLGFSDQSHFHKAFKAHTGVTPRQFQLAAAQ”, the “soluble on expression in E. coli” value is reported as “not soluble”.
With “MKKYTCTVCGYIYNPEDGDPDNGVNPGTDFKDIPDDWVCPLCGGGKDQFEEVEE” the “soluble on expression in E. coli” value was “soluble”.
With “MSLSVYEKVNALDKRAIEELFLSEDILMENAAMALERAVLQNASLGAKVIILCGSGDNGGDGYALARRLVGRFRVLVFEMKLTKSPMCQLQKERAKKAGVVIKTYEENALNQNLECDVLIDCVIGSHFKGKLEPFLNFESLSQKARFKIACDIPSGIDSKGRVDKRAFKADLTISMGAIKSCLLSDRAKDYVGELKVGHLGVFNPIYEIPTDTFLLEKSDLKLPLRDKKNAHKGDYGHAHVLLGKHSGAGLLSALSALSFGSGVVSVQALECEITSNNKPLELVFCENFPNLLSAFALGMGLENIPKDFNRWLELAPCVLDAGVFYHKEILQALEKEAVLTPHPKEFLSLLNLVGINISMLELLDNKLEIARDFSQKYPKVVLLLKGANTLIAHQGQVFINILGSVALAKAGSGDVLAGLILSLLSQNYTPLDAAINASLAHALASLEFKNNYALTPLDLIEKIKQLEGHHHHHH” the “soluble on expression in E. coli” value was “soluble”.
In the case of “MGSDKIHHHHHHMSNRQEQPHFNDWFQARGITEVECLVTDLTGILKGKIMPAGKYLGGGRPRLPDSIFIQTVTGGYPDDDDIHFWNPAERDMELVPDPNAVFLVPWADDPTAQIIHDCHYLTGEPVELAPRHVLKRVLACYQARGWKPVVAPEVEFFLVKTNTDSDYPLEPPIGRNGRQESSRQSFSIDAVNEFDPLFEEMYDYCDAMSLDLDTLIHEEGAGQMEVNFQHGDPLHLADQVVMFKRALRETALRHGMYATFMAKPMANEPGSSMHLHQSLLDAQSGDNLFASDNGQSSRLFQHFIGGLQRYLPASMPLLAPNVNSYRRLMRTETSGSAPINVEWGTDNRTVGLRVPVSTPEATRVENRLAGADANPYLVMAASLACGYLGMLGQLEPRPPMVGSAWSGGHKLPDDIRPALDMLSECQPLAEILGERFTNSYLAVKRAEHREYFQVISSWEREHLLLRV”, the “soluble on expression in E. coli” value is reported as “not soluble”.
With “MKDLVDTTEMYLRTIYELEEEGVTPLRARIAERLEQSGPTVSQTVARMERDGLVVVASDRSLQMTPTGRTLATAVMRKHRLAERLLTDIIGLDINKVHDEASRWEHVMSDEVERRLVKVLKDVSRSPFGNPIPGLDELGVGNSDAAAPGTRVIDAATSMPRKVRIVQINEIFQVETDQFTQLLDADIRVGSEVEIVDRDGHITLSHNGKDVELLDDLAHTIRIEEL” the “soluble on expression in E. coli” value was “soluble”.
In the case of “MVGIQVQEVMTDKYAKIDISAPLSEAIGIIEKEDPDLILVFDDNVYKGVLTQDLIIRSHLKWDPTKAKVRDIYKPAPVVKPTDDLSHAAKLLLETDLRSLPVGENKAEIIGVISDIALLERVVAEEFGKKKVEEFMTKDVITLTPDDTVAKALAVMRDHGISRIPIVNEEGKLEGLVTLHDLILRFIKPRFKAQTGELVGEKIPPFSMKLREAMIRGVITILPTATVREAVATMKDNDIDGLVVVDEGNKVVGILTVKDLLLPISRMVEKEAKFYLQLGGDASALSDFTRERIINDIKKFVDGYSDLLGNEGIIYLYIRRFNEKFRGVHLYQARMRIVTDKGVFIARGETWGAIQAVHDAIRAIERQLLQKAELERDIRYAKRFIEKLELWR”, the “soluble on expression in E. coli” value is reported as “soluble”.
In the case of “SSVLRSMDKLPDLNRATVLLVSTEDALLQQLAESMLKDDCASELRVHLANSLPLPSNVNRPRIDLIVFVINLHSKYSLQKVEEFLQHVDSSFFLGKVCFLVTGAGQESHCSVHQNTVIKLAHTYRSPLFLCDLQKVESFRAAMARRLVRILQICAGHVPGVSALNLMSLLRSPENPPSKEL”, the “soluble on expression in E. coli” value is reported as “soluble”.
In the case of “MGMLDVSLHKITQKSQSLLHRTADRHLRLAVTGLSGAGKTAFITGLVNQLLNSGAVSTVSHSRQNGLPLWQVSREQRLLGVKRAMQPDLEIASFDYQGAMLALTSNPPTWPESTRTISELRLAIKYRPEKGLLAKFADAATLYLDIVDYPGEWLLDLPMLRQSYIEWCTTQQQRIAVLKSSPLYAGFETSLNALNLAAMADESELKRLADQYQQLLHDLVHVQGYYQAQPGRMLLPGEWQGAPLLAFFPLLSVTNAQWSNLKQSDKHSAFHVLEKRYQEYVAKVVKPFYKQHFAGFDRQVVLVDCFSALNRGKSQFEDMGAALNAIMESFQYGQSSYLRRLFAPRIDRLLFAASKVDHVTRDQQSHVLSLLTDMLKHSQHFAGFEGCKVETMAISAIKATRHGMVTTQEGDVEVVQGTGLNGQALTLFPGEVPTRLPEPDFWREQGFNFIGFAPPDNTNVDPSSVHFDHIRLDHLLQYLVGDKLE”, the “soluble on expression in E. coli” value is reported as “not soluble”.
In the case of “MPGKRRFRRSPVKYDFFTRLLQTGFLSTDSLLYPESQFHICTQLSSQDAYADNLEHHHHHH”, the “soluble on expression in E. coli” value is reported as “not soluble”.
In the case of “MSLREYRYSDAHLHYVDFFQESEGMPALIKAMDAAGVEQSMISGIPVAKKWHEDEPKRPRYYAGDDADAYWYSATDTYVAAALQQLPSDQRKRFHPFLSGFNPVDKNAVSHIERMLDLYPGLWQGIGEVFTRHDDLTALTSGDTPRANNEAMTRIYHLAAERDLPVLLHSNITSKRERNPLYLAEIEEPLRNHPHTRFIWAHAGSSMEIHRHQKQMDFLLPVLTRLLEDYPNLYVDLSWSVLQPYLLDEQGAPRKEWLALVEKYPERFMLGSDVVGRFGSLGEQMHGFKPFLDALPESVAHKVARENFLAVLPKARHEGHHHHHH”, the “soluble on expression in E. coli” value is reported as “soluble”.
For “MGSDKIHHHHHHMETLQLRDISETALLPLWARAMETLRPDAIIHDDKALEMYQRLNYDFKRFSNAWLSQLAIAIRTDLIDKLVMDFINAHPQAVIINLGAGFDSRYLRVDNGQIHWFDLDLPNVIAARRLFFSDSDRYRMLEQSLFDVSWLEHAAGESDNCLILAEGVLMYFTEQRIKQFFNDLAERIPHARMLLEMLPHGALGQAHLHEAIGWMNAAFQWTLHNIRRLESWNSHIKVRQEWCILDYHWERWGALSLLAWSPWHRYLFGEKLALLEFD”, the “soluble on expression in E. coli” value was “not soluble”.
For “MGSDKIHHHHHHMQNTSYIALSRQAALWRQMEVVANNMANANTPAFKGEEMMFREFLVPTRSSERAIGGKLAFVQDVGVLRDTREGPLTKTDNPLDFALHGDGYFQIETEAGMRYARNGHFRLDQTGMLVNSQGYAVMDDRDQPIVFAPNETRVEVASDGTVSTENGRVARMKVVKFENDQLLRKAGDSLFETTQDPEAVQSPNVAQGMMEESNVQPVLEMTRMTQILREYQGVQKMLDAEHERQLKAIQTLGSSKTN”, the “soluble on expression in E. coli” value was “not soluble”.
